Measurements from publication PMC12000397.

Experiments:
[1] = molecular target: Grp94 N91C labeled with Alexa Fluor 555 (donor) and Alexa Fluor 647 (acceptor) (mouse) (UniProt P08113); assay: other fluorescence titration; bulk FRET of 125 nM donor- and acceptor-labeled Grp94 N91C, BiP NBD titrated, apo conditions; 30 °C, 25 mM Tris pH 7.5, 50 mM KCl, 1 mM BME, 1 mg/mL BSA; single-site fit; apparent
[2] = molecular target: FITC-labeled BiP NBD (mouse); assay: fluorescence polarisation; 50 nM FITC-labeled BiP NBD constructs, Grp94 or Grp94 MD titrated; 25 mM Tris pH 7.5, 50 mM KCl, 1 mM ADP (hexokinase-treated), 1 mM DTT; single-site binding fit
[3] = molecular target: FITC-labeled BiP_(D187A) NBD (mouse); assay: as above
[4] = molecular target: FITC-labeled BiP_(I191A) NBD (mouse); assay: as above

Sequence of Grp94 (residues 72-765) with the charged-linker removed (Δ287-328) (P08113 other isoform, or with tags, fused parts or gaps mutant): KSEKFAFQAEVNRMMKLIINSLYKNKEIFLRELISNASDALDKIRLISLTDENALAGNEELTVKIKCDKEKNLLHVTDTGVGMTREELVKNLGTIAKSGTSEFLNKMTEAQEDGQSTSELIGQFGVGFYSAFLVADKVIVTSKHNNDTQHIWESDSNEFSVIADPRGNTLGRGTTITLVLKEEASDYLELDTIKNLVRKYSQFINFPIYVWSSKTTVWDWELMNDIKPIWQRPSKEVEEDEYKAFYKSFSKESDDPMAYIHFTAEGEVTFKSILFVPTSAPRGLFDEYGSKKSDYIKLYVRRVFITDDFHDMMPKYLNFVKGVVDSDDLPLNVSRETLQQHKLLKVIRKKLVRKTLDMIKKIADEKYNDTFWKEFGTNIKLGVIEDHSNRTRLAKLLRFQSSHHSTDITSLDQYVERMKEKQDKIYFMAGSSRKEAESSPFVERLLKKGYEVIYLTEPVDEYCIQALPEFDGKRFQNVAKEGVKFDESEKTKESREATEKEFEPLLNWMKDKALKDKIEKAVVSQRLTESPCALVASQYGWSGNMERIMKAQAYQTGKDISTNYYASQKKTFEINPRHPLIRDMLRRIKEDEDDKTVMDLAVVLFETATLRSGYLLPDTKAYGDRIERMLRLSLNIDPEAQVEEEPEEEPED
Sequence of Grp94 N91C labeled with Alexa Fluor 555 (donor) and Alexa Fluor 647 (acceptor) (mouse) (P08113 other isoform, or with tags, fused parts or gaps Δ287-328 | N91C | N91C): as the sequence (P08113 other isoform, or with tags, fused parts or gaps mutant) above, with N20C counted along it

Row | Substance | Kd [1] | Kd [2] | Kd [3] | Kd [4]
1 | BiP NBD (domain or fragment) | 0.67 µM | – | – | –
2 | Grp94 (residues 72-765) with the charged-linker removed (Δ287-328) (from UniProt P08113 72-765) (natural protein) | – | 1.4 µM | 8.2 µM | 9 µM
